Drawing on the supplement of paper PMC6755084, this text covers fraction ligated for 83 variants.

The chains are these.
B1: minF1; the commonest letter at each place (parent)
chain: GAGACCGCAACTGAAAAGTTGTTATCAGAAATGGATGGGTTGAATTTCTGCACGTAGAAGCAAAAGGC

This data set covers variants of B1. Kind of data set: fraction ligated after 30 min (ligated reads / total reads); higher = more ligase activity. The conditions noted are these: with F1*subA RNA substrate (template-directed ligation), 42 °C. As to the method:
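Chip-synthesised pool of minF1 ligase ribozyme variants (single and double substitutions, single to quadruple deletions, bulge and P2 designed variants) was transcribed with T7 and reacted as a pool with excess substrate F1*subA for 30 min at 42 C in 50 mM EPPS pH 8.5, 25 mM MgCl2. Ligated and unligated RNAs were separated by PAGE, barcoded by RT and deep sequenced; fraction ligated = ligated reads / total reads, relative activity = FL / FL of wild-type minF1 (0.76); sequencing FL correlated with PAGE (R2 = 0.98). Sequences are the DNA template of the ribozyme.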
Take T23A A24T: the fraction ligated is 0.0331. Then T23A A24C, with 0.0188. As for T23A A24G, the fraction ligated came out at 0.00909.

Consider T23C C26G, for which the fraction ligated was determined as 0.00264. In the case of T23C C26T it was 0.0218; in that of T23C C26A, 0.006. Take T23G A27G: the fraction ligated was found to be 0.795. Regarding T23G A27C, the fraction ligated is 0.714. For T23G A27T, the fraction ligated worked out at 0.805.

On to T23C T32G, for which the fraction ligated came out at 0.00399.

In the case of T23C T32A, the fraction ligated worked out at 0.00196.

As to T23C T32C, the fraction ligated is 0.0041.

T23G A43C: the fraction ligated worked out at 0.0643.

With T23G A43T, the fraction ligated worked out at 0.0898. In the case of T23G A43G it was 0.0673. Then T23G G28C, with 0.8; and T23G G28A, with 0.798. In the case of T23G G28T it was 0.803; in that of T23A G42T, 0.003; in that of T23A G42C, 0.00428. As to T23A G42A, the fraction ligated worked out at 0.0065. T23C G33C: the fraction ligated worked out at 0.147. In the case of T23C G33A, the fraction ligated is 0.304. On to T23C G33T, for which the fraction ligated was determined as 0.0728. Then T23A A43C, with 0.00617; and T23A A43T, with 0.00536; and T23A A43G, with 0.00242. In the case of T23G G42T it was 0.0401; in that of T23G G42C, 0.00862. In the case of T23G G42A it was 0.204; in that of T23G A29T, 0.803. With T23G A29C, the fraction ligated came out at 0.824. In the case of T23G A29G it was 0.813. Turning to T23C A35G, the fraction ligated turned out to be 0.0141. As for T23C A35C, the fraction ligated came to 0.00513. Turning to T23C A35T, the fraction ligated worked out at 0.00507. For T23G A35T, the fraction ligated was found to be 0.031. As for T23G A35G, the fraction ligated is 0.247.

As for T23G A35C, the fraction ligated came out at 0.0185. As to T23C A30T, the fraction ligated came to 0.221.

Regarding T23C A30G, the fraction ligated stood at 0.391. As to T23C A30C, the fraction ligated was determined as 0.21. With T23C G34T, the fraction ligated came to 0.00428. Then T23C G34C, with 0.0023; and T23C G34A, with 0.0166. T23C G42A: the fraction ligated was found to be 0.0247. Regarding T23C G42T, the fraction ligated was determined as 0.00449.

Regarding T23C G42C, the fraction ligated came to 0.00249. Then T23C T25G, with 0.0076; and T23C T25C, with 0.0306. Turning to T23C T25A, the fraction ligated is 0.0129.

Take T23A A27C: the fraction ligated came to 0.0462. Regarding T23A A27T, the fraction ligated was found to be 0.488. In the case of T23A A27G it was 0.234; in that of T23G A31G, 0.82; in that of T23G A31T, 0.826. In the case of T23G A31C it was 0.783; in that of T23G G33C, 0.73. Consider T23G G33A, for which the fraction ligated was found to be 0.801. Regarding T23G G33T, the fraction ligated turned out to be 0.556. For T23C A27C, the fraction ligated stood at 0.133. In the case of T23C A27T it was 0.595.

For the variant T23C A27G, the fraction ligated stood at 0.354. For the variant T23G C26A, the fraction ligated was determined as 0.123. As to T23G C26T, the fraction ligated is 0.434. In the case of T23G C26G it was 0.0528; in that of T23C A24T, 0.0194; in that of T23C A24C, 0.0187. In the case of T23C A24G, the fraction ligated turned out to be 0.0315. Then T23C G28A, with 0.242. In the case of T23C G28C it was 0.224; in that of T23C G28T, 0.326; in that of T23A T25G, 0.00615. Consider T23A T25C, for which the fraction ligated was determined as 0.0136.

Take T23A T25A: the fraction ligated was determined as 0.00503. In the case of T23G it was 0.8; in that of T23A, 0.215.

Regarding T23C, the fraction ligated was found to be 0.318. Consider T23G A44C, for which the fraction ligated stood at 0.693. Then T23G A44G, with 0.764; and T23G A44T, with 0.792; and T23A G33C, with 0.0701.

T23A G33A: the fraction ligated worked out at 0.178.
